Experiment [1] deals with BC2L-C-nt, N-terminal TNF-α-like domain of BC2L-C (Burkholderia cenocepacia). Put plainly: SEC-MALS; Superdex 200, 20 mM Tris, 250 mM NaCl, 1 mM CaCl2, pH 7.5; loaded at 4.2 mg/mL BC2L-C, 7.5 mg/mL BC2L-C-nt, 10.7 mg/mL BC2L-C-ct; MALLS with refractometry. For orientation: In gel filtration, larger molecules generally elute earlier.
In the next experiment the test system is BC2L-C-nt. Details: method as in PMID 20152153. The conditions noted are these: cited from earlier work.
The target in experiment [2] is BC2L-C, soluble lectin from Burkholderia cenocepacia (whole protein) (Burkholderia cenocepacia) (UniProt B4EH87). Put plainly: SEC-MALS; Superdex 200, 20 mM Tris, 250 mM NaCl, 1 mM CaCl2, pH 7.5; loaded at 4.2 mg/mL BC2L-C, 7.5 mg/mL BC2L-C-nt, 10.7 mg/mL BC2L-C-ct; MALLS with refractometry.
A further experiment deals with B. cenocepacia K56-2. Put plainly: Mannose-dependent lectin extraction from bacterial surface (Western blot). Details: species or system Burkholderia cenocepacia. The conditions noted are these: 50 mM D-mannose, 5 min, FLAG-tagged lectins. How it is done:
Culture supernatant proteins were precipitated with trichloroacetic acid as described previously The protein concentration was determined by Bradford assay (Bio-Rad) and 4 µg of protein were loaded on a 18% SDS-PAGE gel. After electrophoresis, gels were transferred to nitrocellulose membranes for immunoblot analysis. The membranes were incubated with the 4RA2 monoclonal antibody (Neoclone) cross-reacting with the B. cenocepacia RNA polymerase subunit alpha (cytosolic protein, cell lysis control) and the FLAG M2 monoclonal antibody (Sigma). The Alexa Fluor 680 goat anti-mouse IgG (Molecular Probes) was used as a secondary antibody. Detection was performed using the Odyssey Infrared Imager (LI-COR Biosciences).
Overnight cultures were diluted to an OD600 nm of 0.03 in 50 mL LB and grown at 37°C for 8 h. Cells were then centrifuged at 5000 g for 10 min. The pellet was washed twice with 25 mL of phosphate buffered saline (PBS) and finally resuspended in 1.5 mL PBS. Five hundred µL aliquots were placed into two eppendorf tubes to which 500 µL of PBS or 500 µL of 100 mM D-mannose made in PBS (50 mM final concentration) was added. Samples were gently mixed by inversion and incubated for 5 min at room temperature. Samples were centrifuged at 6000 g for 5 min, supernatants were collected (800 µL) and filter-sterilized using […] filters. […]
A general note: A western blot detects proteins with antibodies after separation by electrophoresis.

Experiment [3] deals with BC2L-C-ct, C-terminal domain of BC2L-C (Burkholderia cenocepacia). Kind of experiment: SEC-MALS; Superdex 200, 20 mM Tris, 250 mM NaCl, 1 mM CaCl2, pH 7.5; loaded at 4.2 mg/mL BC2L-C, 7.5 mg/mL BC2L-C-nt, 10.7 mg/mL BC2L-C-ct; MALLS with refractometry.
A further experiment deals with BEAS-2B cells. Put plainly: IL-8 production by respiratory epithelial cells (ELISA). Format: cell-based, human. Conditions: 0.3 µM, 15 h, ELISA of supernatants. The procedure:
BC2L-C and its separate domains were used for the stimulation of the human bronchial cell line BEAS-2B obtained from the American Type Cell Collection (Manassas, VA). Cells were maintained in serial passage in F-12K culture medium supplemented with 10% FCS, 1% penicillin and streptomycin, 1% glutamine and 10 mM HEPES in 75 cm2 culture flasks and seeded at 5×10^4 on 24-well plates 3 days before stimulation. In all experiments, BEAS-2B cells were stimulated during 15 hours with the different agonists in a 300 µL medium. IL-8 concentrations in cell culture supernatants were determined using a Duo-Set ELISA kit. Duo-Set ELISA kit and the recombinant human TNF-α were obtained from R&D Systems (Minneapolis, MN).

A word on the stoichiometry N: it is the number of molecules, sites or subunits per partner or assembly. Take “BC2L-C-nt, N-terminal TNF-α-like domain of BC2L-C (domain or fragment)”: the stoichiometry N in experiment [1] is 3.
For `C[C@H](O)[C@@H](O)[C@@H](O)[C@H](O)C=O` [fucose], the “binding of isolated BC2L-C-nt domain” value in the experiment on BC2L-C-nt is recorded as “binds strongly to fucose”.
In turn, “BC2L-C, soluble lectin from Burkholderia cenocepacia (whole protein) (from UniProt B4EH87 1-129) (natural protein)” returned a stoichiometry N in experiment [2] of 6.
Regarding `OC[C@H]1OC(O)[C@@H](O)[C@@H](O)[C@@H]1O` (stereo partly drawn) [D-Man, D-mannose], in the experiment on B. cenocepacia K56-2, the “release of surface-bound lectins into supernatant” value is “BC2L-B and -C lectins are released into the supernatant”.
In the case of “BC2L-C-ct, C-terminal domain of BC2L-C (domain or fragment)”, the stoichiometry N in experiment [3] stood at 2.

B1: BC2L-C: soluble hexameric lectin from Burkholderia cenocepacia with fucose- and mannose/heptose-binding domains, recombinant (protein)
chain: MADSQTSSNRAGEFSIPPNTDFRAIFFANAAEQQHIKLFIGDSQEPAAYHKLTTRDGPREATLNSGNGKIRFEVSVNGKPSATDARLAPINGKKSDGSPFTVNFGIVVSEDGHDSDYNDGIVVLQWPIG
B1: the IL-8 production result in the experiment on BEAS-2B cells is “markedly increase in IL-8 production”.

The record behind these values is publication PMC3164656, “Burkholderia cenocepacia BC2L-C Is a Super Lectin with Dual Specificity and Proinflammatory Activity” (PLoS Pathogens, 2011).
